The text below walks through data of patent US11419948B2, “Functionalized microgels with fibrin binding elements” (Georgia Tech Research Corporation, priority 2013, dated 2022).

The experiment has as its target T1, fibrin clots (Homo sapiens, UniProt P02671+P02675+P02679).
T1 sequence (P02671 36-866 limits assumed): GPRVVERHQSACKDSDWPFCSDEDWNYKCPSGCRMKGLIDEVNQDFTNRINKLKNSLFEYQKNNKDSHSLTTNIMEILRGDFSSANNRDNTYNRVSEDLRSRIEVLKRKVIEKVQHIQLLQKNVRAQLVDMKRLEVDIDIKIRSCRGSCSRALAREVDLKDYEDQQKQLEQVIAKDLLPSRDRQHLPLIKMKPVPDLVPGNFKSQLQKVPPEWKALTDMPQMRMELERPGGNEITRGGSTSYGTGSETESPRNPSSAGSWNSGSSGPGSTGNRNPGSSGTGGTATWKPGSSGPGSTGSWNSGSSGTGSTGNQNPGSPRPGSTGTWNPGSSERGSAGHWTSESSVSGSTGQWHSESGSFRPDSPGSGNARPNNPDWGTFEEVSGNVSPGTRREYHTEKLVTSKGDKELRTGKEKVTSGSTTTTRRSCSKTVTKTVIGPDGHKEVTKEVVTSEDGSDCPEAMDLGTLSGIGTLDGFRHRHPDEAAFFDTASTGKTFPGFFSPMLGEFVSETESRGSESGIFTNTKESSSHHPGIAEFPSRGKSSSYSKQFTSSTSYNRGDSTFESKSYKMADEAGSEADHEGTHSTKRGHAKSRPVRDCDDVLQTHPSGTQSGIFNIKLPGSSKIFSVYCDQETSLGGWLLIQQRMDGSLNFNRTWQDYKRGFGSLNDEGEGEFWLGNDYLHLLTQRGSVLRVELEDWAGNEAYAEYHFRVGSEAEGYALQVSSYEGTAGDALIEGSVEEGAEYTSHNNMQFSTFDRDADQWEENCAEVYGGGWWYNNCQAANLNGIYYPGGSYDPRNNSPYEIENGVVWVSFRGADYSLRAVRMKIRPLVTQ
T1 sequence (P02675 45-491 limits assumed): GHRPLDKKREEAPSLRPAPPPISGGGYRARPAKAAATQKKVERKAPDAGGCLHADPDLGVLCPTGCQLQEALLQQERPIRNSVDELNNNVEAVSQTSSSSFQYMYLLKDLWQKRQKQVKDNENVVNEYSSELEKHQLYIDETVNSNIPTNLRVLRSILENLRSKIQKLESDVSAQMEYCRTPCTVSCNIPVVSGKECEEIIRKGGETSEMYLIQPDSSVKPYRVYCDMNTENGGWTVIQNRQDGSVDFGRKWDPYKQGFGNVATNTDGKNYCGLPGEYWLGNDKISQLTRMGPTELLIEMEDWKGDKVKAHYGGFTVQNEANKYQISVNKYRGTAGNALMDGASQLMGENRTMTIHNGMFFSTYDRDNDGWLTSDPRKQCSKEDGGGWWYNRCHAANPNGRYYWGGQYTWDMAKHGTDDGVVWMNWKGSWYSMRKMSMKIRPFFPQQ
T1 sequence (P02679 27-453): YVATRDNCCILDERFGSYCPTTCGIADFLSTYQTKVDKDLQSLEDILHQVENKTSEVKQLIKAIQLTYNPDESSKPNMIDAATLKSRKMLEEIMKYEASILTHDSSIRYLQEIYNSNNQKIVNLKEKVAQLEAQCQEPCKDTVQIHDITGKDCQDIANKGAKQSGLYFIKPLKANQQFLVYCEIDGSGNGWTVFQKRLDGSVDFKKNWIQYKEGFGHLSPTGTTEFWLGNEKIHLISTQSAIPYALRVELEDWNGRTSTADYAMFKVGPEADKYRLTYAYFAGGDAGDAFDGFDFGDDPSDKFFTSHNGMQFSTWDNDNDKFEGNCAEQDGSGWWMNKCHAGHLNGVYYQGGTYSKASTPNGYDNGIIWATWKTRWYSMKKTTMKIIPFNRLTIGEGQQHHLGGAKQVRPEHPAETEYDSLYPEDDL
In words: Clot microstructure by confocal microscopy. It is filed as biochemical. On the set-up: from tissue; host or cells: blood plasma (platelet-rich or platelet-poor). Conditions: clots formed in presence of particles, compared to control (fibrin-only) clots. An excerpt: FIGS. 4A and 4B are maximum-intensity confocal images of fibrin clots formed from platelet-rich plasma (PRP) or platelet-poor plasma (PPP) in the absence or presence of PLPs or S11-ULCs. Fibrin, grey; microgels/platelets, circled.
To allow appreciation of the network structure in the presence of saturation, 0.33× exposures and equivalent exposures are shown on the left- and right-hand sides, respectively, of the images for PRP and PLP clots. […] FIG. 4E is a graph showing the calculated spread area of PLPs, natural platelets, S11-ULCs and H6-PS particles within fibrin matrices. (**p<0.01, ***p<0.001).
To further characterize the nature of PLP-fibrin interactions, clot microstructure was analyzed via confocal microscopy by forming clots in the presence or absence of scFv-ULC microgels. […] These clots were highly heterogeneous, containing regions of dense fibrin observed in conjugation with PLPs (FIG. 4A) with the dense features becoming more pronounced over time. These features were very similar to those observed from clots formed in platelet-rich plasma, although occurring on a different time scale.

B1: PLPs: ultra-low crosslinked pNIPAm-AAc microgels conjugated to fibrin-specific sdFv H6 (conjugate)
VH: QVQLLESGGGLVQPGGSLRLSCAASGDRFTHNDMGWVRQAPGKGLEWVSTIPTTDGSTYYADSVKGRFTISRDNSKSTLYLQMNSLRAEDTAVYYCATGYMWKAPAYVKYWGQGTLVTVSSAAAEQKLISEEDLNSAAHYTDIG
As to B1, the clot structure result is listed as “significantly altered clot structure”.
